{"source": "patent US20230390371A1", "about": "“ANTI-TUMOR IMMUNITY INDUCES THE PRESENTATION OF ABERRANT PEPTIDES” (STICHTING HET NEDERLANDS KANKER INSTITUUT-ANTONI VAN …, priority 2020, published 2023)", "molecules": {"B1": {"name": "IFNγ: interferon gamma (PeproTech), used at 250 U/mL (protein, UniProt P01579 24-161, looked up)", "Interferon gamma": "QDPYVKEAENLKKYFNAGHSDVADNGTLFLGILKNWKEESDRKIMQSQIVSFYFKLFKNFKDDQSIQKSVETIKEDMNVKFFNSNKKKRDDFEKLTNYSVTDLNVQRKAIHELIQVMAELSPAAKTGKRKRSQMLFRG"}}, "key": {"MD55A3 melanoma cells": {"tested_on": "MD55A3 melanoma cells", "assay": "V5-ATF4(1-63)-His frameshift reporter, His-tag pulldown and V5-tag immunoblotting", "type": "cell-based, human", "conditions": "IFNγ treatment vs control, MD55A3 cells", "source_text": "FIG. 3: W-Bumps are associated with disordered out-of-frame peptides, and shortage in tryptophan leads to frameshifting events. • (a) Bar-plots depicting total occurrences of alpha-helices, beta-sheets and turns for tryptophan-containing peptide sequences corresponding to W-Bumps (left) and all remaining peptide sequences (middle), and the difference in percentages (right). […] Tryptophan shortage, on the other hand, can lead to stalling on the tryptophan codon (bottom left panel), or could in theory induce frameshifting events, leading to aberrant peptide production (lower right panel). Since secondary structure of growing polypeptide chains is attained in the lower tunnel of the ribosome, the loss of an a-helical secondary structure in this tunnel could hamper ribosomal progression. (c) Line-plots depicting the probability of disorderedness of peptide sequences. The position of the tryptophan is indicated by the dashed line. […] The green line represents the average probability of disorderedness of all peptides (‘All tryptophan codons’, n=36508). A group of outlier candidates that show relatively ordered out-of-frame peptide sequences were selected for comparisons (‘Selected tryptophan codons’, n=94, red). (d) Line-plots depicting mean frequency of RPFs at single nucleotide resolution across all tryptophans (green) and the selected outlier set (red) from panel 3c. […]"}, "[1]": {"tested_on": "MD55A3 cells expressing the out-of-frame tGFP+1 reporter gene", "assay": "2D-LC MS/MS full proteome, out-of-frame tGFP+1 reporter", "type": "cell-based, human", "conditions": "IFNγ-treated vs control MD55A3 cells, +1 out-of-frame tGFP", "procedure": "For deeper proteome coverage in search of IFNγ-induced frameshifts, IFNγ- or mock treated melanoma cells were lysed and digested as described above, after which dried digests were subjected to basic reversed-phase (HpH-RP) high-performance liquid chromatography for offline peptide fractionation. 250 μg peptides were reconstituted in 95% 10 mM ammonium hydroxide (NH4OH, solvent A)/5% (90% acetonitrile (ACN)/10 mM NH4OH, solvent B) and loaded onto a Phenomenex Kinetex EVO C18 analytical column (150 mm×2.1 mm, particle size 5 μm, 100 Å pores) coupled to an Agilent 1260 HPLC system equipped with a fraction collector. […] All fractions were analyzed by nanoLC-MS/MS on an Orbitrap Fusion Tribrid mass spectrometer equipped with an Easy-nLC1000 system (Thermo Scientific) as described previously^72. […]\nFurther, the MS data was analyzed by MaxQuant (version 1.6.0.16)74. […] The in-frame protein expression data was further normalized and analyzed using DEP^76, For the frame-shift proteome analysis, the MS data was analyzed by MaxQuant (version 1.6.0.16)^74 with LFQ normalization, and then was scanned against the trans-frame polypeptide database together with the SWISSPROT proteins with Evidence level of 1. […] Only the peptides reproducibly detected across replicates were retained for further analysis, and the list included reverse peptide hits (n=41) (FIG. 4c). […]"}}}
{"molecule": "B1", "values": [{"measurement": "His-tag pulldown of +1 and +2 reporter proteins (frameshifting events)", "setting": "MD55A3 melanoma cells", "value": "partially pulled down"}, {"measurement": "induction of tGFP reporter peptide expression", "setting": "[1]", "value": "> 30", "unit": "fold"}]}
